This series relates to Escherichia coli TOP10. The experiment in a line: shrunken log2 fold change of peptide-encoding DNA abundance (4.5 h post-induction vs induction); higher = less antimicrobial activity (less host growth inhibition). As to conditions: time post-induction: 4.5 h; library: site-saturation at positions 5, 18, 19, 20.
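Also: peptides expressed intracellularly from a pBAD plasmid library in pooled LB shake-flask culture, induced with 0.3% L-arabinose, DNA abundance read by NGS, three biological replicates, DESeq2 with apeglm shrinkage.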

In the case of RRIRNRPPRLPRPRPRPRQQPRP, the “shrunken log2 fold change” value came out at 0.365.

For the sequence RRIRPRPPRLPRPRPRPKEDPRP, the “shrunken log2 fold change” value amounted to 0.176. The figure for RRIRNRPPRLPRPRPRPHCWPRP is 0.0498.

On to RRIRQRPPRLPRPRPRPAHIPRP, for which the “shrunken log2 fold change” value is -0.137.

As for RRIRRRPPRLPRPRPRPDYTPRP, the “shrunken log2 fold change” value was -0.0883.

Take RRIRARPPRLPRPRPRPENNPRP: the “shrunken log2 fold change” value worked out at 0.263. With RRIRDRPPRLPRPRPRPGWDPRP, the “shrunken log2 fold change” value is -0.182.

Turning to RRIRQRPPRLPRPRPRPVVFPRP, the “shrunken log2 fold change” value was 1.25. With RRIRDRPPRLPRPRPRPQIKPRP the figure was 0.0877; with RRIRKRPPRLPRPRPRPFWIPRP, -0.414. With RRIRCRPPRLPRPRPRPAGYPRP the figure was -0.342; with RRIRRRPPRLPRPRPRPKRYPRP, 0.00167; with RRIRQRPPRLPRPRPRPSSIPRP, -0.0146.

Turning to RRIRGRPPRLPRPRPRPCGIPRP, the “shrunken log2 fold change” value was 0.206. With RRIRKRPPRLPRPRPRPRPAPRP the figure was 0.758; with RRIRPRPPRLPRPRPRPNVNPRP, -0.46.

Consider RRIRFRPPRLPRPRPRPNHLPRP, for which the “shrunken log2 fold change” value is -1.06.

In the case of RRIRTRPPRLPRPRPRPGMFPRP, the “shrunken log2 fold change” value is -0.397. With RRIRMRPPRLPRPRPRPLITPRP the figure was 0.0495; with RRIRKRPPRLPRPRPRPYYIPRP, -0.372; with RRIRYRPPRLPRPRPRPTFIPRP, -0.0922. The figure for RRIRPRPPRLPRPRPRPQWVPRP is 0.0693; for RRIRGRPPRLPRPRPRPCEEPRP it is 0.742; for RRIRWRPPRLPRPRPRPKDPPRP it is -0.0777. The figure for RRIRERPPRLPRPRPRPFPTPRP is -0.573; for RRIRTRPPRLPRPRPRPTWCPRP it is -0.178. For the sequence RRIRERPPRLPRPRPRPMVYPRP, the “shrunken log2 fold change” value was -0.119.

Consider RRIRSRPPRLPRPRPRPMLFPRP, for which the “shrunken log2 fold change” value was -0.196. As to RRIRKRPPRLPRPRPRPKCGPRP, the “shrunken log2 fold change” value is 0.0305. Regarding RRIRTRPPRLPRPRPRPPKPPRP, the “shrunken log2 fold change” value turned out to be 0.304. For the sequence RRIRGRPPRLPRPRPRPIMMPRP, the “shrunken log2 fold change” value is -0.0902. The figure for RRIRDRPPRLPRPRPRPVQFPRP is -0.0196; for RRIRFRPPRLPRPRPRPSDGPRP it is -0.391. Take RRIRMRPPRLPRPRPRPPLNPRP: the “shrunken log2 fold change” value turned out to be 0.584.

For RRIRVRPPRLPRPRPRPSEKPRP, the “shrunken log2 fold change” value turned out to be 0.268. With RRIRGRPPRLPRPRPRPWLMPRP, the “shrunken log2 fold change” value worked out at 0.428. The figure for RRIRKRPPRLPRPRPRPAMNPRP is -0.0724; for RRIRDRPPRLPRPRPRPDLKPRP it is 0.169. The figure for RRIRTRPPRLPRPRPRPKPMPRP is 0.0287; for RRIRMRPPRLPRPRPRPNADPRP it is 2.51; for RRIRNRPPRLPRPRPRPMCAPRP it is -0.253. With RRIRSRPPRLPRPRPRPYVMPRP the figure was -0.653; with RRIRNRPPRLPRPRPRPWYFPRP, -0.222; with RRIRHRPPRLPRPRPRPMESPRP, 0.00489.

As to RRIRLRPPRLPRPRPRPKYGPRP, the “shrunken log2 fold change” value is -0.364. RRIRTRPPRLPRPRPRPLGIPRP: the “shrunken log2 fold change” value was -0.638. With RRIRWRPPRLPRPRPRPGLTPRP the figure was 0.0693. RRIRGRPPRLPRPRPRPYMCPRP: the “shrunken log2 fold change” value was 0.0864. With RRIRPRPPRLPRPRPRPMNLPRP the figure was 0.00249.

For the sequence RRIRRRPPRLPRPRPRPERMPRP, the “shrunken log2 fold change” value was 0.222.

In the case of RRIRIRPPRLPRPRPRPEKNPRP, the “shrunken log2 fold change” value was -0.232. Take RRIRGRPPRLPRPRPRPGWYPRP: the “shrunken log2 fold change” value was -0.0318. The figure for RRIRIRPPRLPRPRPRPSWVPRP is -0.168. The figure for RRIRMRPPRLPRPRPRPVMRPRP is 0.305.

Consider RRIRKRPPRLPRPRPRPDMLPRP, for which the “shrunken log2 fold change” value was -0.0389. The figure for RRIRKRPPRLPRPRPRPVFHPRP is 0.818. With RRIRWRPPRLPRPRPRPPIRPRP the figure was -0.0117; with RRIRWRPPRLPRPRPRPKGKPRP, -0.00191; with RRIRRRPPRLPRPRPRPMGGPRP, 0.083. RRIRWRPPRLPRPRPRPLFWPRP: the “shrunken log2 fold change” value turned out to be 0.373. As for RRIRLRPPRLPRPRPRPRMWPRP, the “shrunken log2 fold change” value is 0.458.

Turning to RRIRARPPRLPRPRPRPDHPPRP, the “shrunken log2 fold change” value turned out to be 0.297. For the sequence RRIRIRPPRLPRPRPRPNMGPRP, the “shrunken log2 fold change” value is -0.563.

RRIRWRPPRLPRPRPRPPHCPRP: the “shrunken log2 fold change” value turned out to be 0.754. Take RRIRKRPPRLPRPRPRPRYGPRP: the “shrunken log2 fold change” value was -0.238. With RRIRTRPPRLPRPRPRPLMYPRP, the “shrunken log2 fold change” value is -0.736.

With RRIRCRPPRLPRPRPRPTEHPRP, the “shrunken log2 fold change” value amounted to 0.00581. As for RRIRSRPPRLPRPRPRPVPTPRP, the “shrunken log2 fold change” value amounted to 0.105.

Take RRIRHRPPRLPRPRPRPAHGPRP: the “shrunken log2 fold change” value is 0.0855. The figure for RRIRVRPPRLPRPRPRPVYRPRP is 0.132; for RRIRKRPPRLPRPRPRPVCKPRP it is 0.0228. As to RRIRIRPPRLPRPRPRPVIVPRP, the “shrunken log2 fold change” value is -0.214. The figure for RRIRWRPPRLPRPRPRPSHQPRP is -0.0408; for RRIRDRPPRLPRPRPRPNFIPRP it is -0.0733; for RRIRQRPPRLPRPRPRPQCHPRP it is -0.0344.

Consider RRIRPRPPRLPRPRPRPWNSPRP, for which the “shrunken log2 fold change” value is -0.163. The figure for RRIRSRPPRLPRPRPRPNMGPRP is -0.351; for RRIRSRPPRLPRPRPRPPAWPRP it is 0.436; for RRIRKRPPRLPRPRPRPQRRPRP it is 0.734.

As to RRIRPRPPRLPRPRPRPTMQPRP, the “shrunken log2 fold change” value stood at 0.393. The figure for RRIRLRPPRLPRPRPRPPRSPRP is 0.422; for RRIRPRPPRLPRPRPRPTDWPRP it is 0.257.

Turning to RRIRIRPPRLPRPRPRPCVGPRP, the “shrunken log2 fold change” value was -0.164.

RRIRERPPRLPRPRPRPGGFPRP: the “shrunken log2 fold change” value was 0.292. Regarding RRIRTRPPRLPRPRPRPEFNPRP, the “shrunken log2 fold change” value was determined as 0.085. With RRIRTRPPRLPRPRPRPPQFPRP, the “shrunken log2 fold change” value came to 0.11. The figure for RRIRARPPRLPRPRPRPYMAPRP is -0.702; for RRIRSRPPRLPRPRPRPWMSPRP it is 0.132; for RRIRIRPPRLPRPRPRPKPFPRP it is -0.00302. Turning to RRIRHRPPRLPRPRPRPESNPRP, the “shrunken log2 fold change” value was -0.131. With RRIRDRPPRLPRPRPRPKPYPRP the figure was -0.12; with RRIRLRPPRLPRPRPRPGHEPRP, -0.0844.

Take RRIRCRPPRLPRPRPRPPTKPRP: the “shrunken log2 fold change” value is 0.108. The figure for RRIRLRPPRLPRPRPRPQFNPRP is -0.57. With RRIRGRPPRLPRPRPRPLIIPRP the figure was -0.05; with RRIRPRPPRLPRPRPRPAFGPRP, 0.45; with RRIRKRPPRLPRPRPRPCVDPRP, 0.268. With RRIRIRPPRLPRPRPRPSDEPRP the figure was -0.698; with RRIRRRPPRLPRPRPRPGKHPRP, -0.0322. Consider RRIRDRPPRLPRPRPRPAAYPRP, for which the “shrunken log2 fold change” value amounted to 0.174.

RRIRVRPPRLPRPRPRPYYMPRP: the “shrunken log2 fold change” value was -0.997. With RRIRARPPRLPRPRPRPTDAPRP the figure was 0.607; with RRIRHRPPRLPRPRPRPVSQPRP, 0.114; with RRIRPRPPRLPRPRPRPWAIPRP, -0.0391.

RRIRNRPPRLPRPRPRPMAEPRP: the “shrunken log2 fold change” value came to 0.0284.

In the case of RRIRNRPPRLPRPRPRPAFWPRP, the “shrunken log2 fold change” value turned out to be 0.0558.

Regarding RRIRCRPPRLPRPRPRPWGPPRP, the “shrunken log2 fold change” value is -0.299. With RRIRRRPPRLPRPRPRPWYNPRP the figure was -0.468; with RRIRPRPPRLPRPRPRPLIHPRP, -0.472; with RRIRERPPRLPRPRPRPRSLPRP, -0.0254. With RRIRFRPPRLPRPRPRPELAPRP the figure was 0.0952. With RRIRWRPPRLPRPRPRPFPNPRP the figure was -0.138; with RRIRARPPRLPRPRPRPQANPRP, 0.304. For RRIRPRPPRLPRPRPRPGMTPRP, the “shrunken log2 fold change” value was found to be 0.0694. RRIRRRPPRLPRPRPRPRHCPRP: the “shrunken log2 fold change” value turned out to be 0.119. With RRIRTRPPRLPRPRPRPHELPRP the figure was -0.125; with RRIRRRPPRLPRPRPRPLIIPRP, -0.376.

As to RRIRTRPPRLPRPRPRPYWQPRP, the “shrunken log2 fold change” value was -0.435. The figure for RRIRFRPPRLPRPRPRPLGGPRP is -0.235; for RRIRFRPPRLPRPRPRPFEWPRP it is -0.0458; for RRIRHRPPRLPRPRPRPNHSPRP it is -0.785. The figure for RRIRQRPPRLPRPRPRPSIMPRP is -0.0993; for RRIRARPPRLPRPRPRPRDCPRP it is 0.391.

With RRIRVRPPRLPRPRPRPHEEPRP, the “shrunken log2 fold change” value is 0.0138. The figure for RRIRCRPPRLPRPRPRPVWQPRP is -0.063.

The values are drawn from the supplement of paper PMC9112550, “Optimization of the antimicrobial peptide Bac7 by deep mutational scanning” (BMC Biology, 2022).
